Measurements: publication PMC11847541, “Liver fatty acid binding protein FABP1 transfers substrates to cytochrome P450 4A11 for catalysis” (The Journal of Biological Chemistry, 2025)

How the values were obtained:
[1] = molecular target: T1, FABP1 (Homo sapiens, UniProt P07148); settings: human FABP1, fluorescence displacement assay; read-out: Kd; cited from earlier work
T1 construct: GST (N, cleaved yes); made in house; host or cells: Escherichia coli DH5α
T1 sequence (P07148 with tags, fused parts or gaps): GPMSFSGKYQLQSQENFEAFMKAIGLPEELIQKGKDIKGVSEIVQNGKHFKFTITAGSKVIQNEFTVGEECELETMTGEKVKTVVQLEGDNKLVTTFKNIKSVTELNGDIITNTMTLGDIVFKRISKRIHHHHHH

[2] = molecular target: T2, P450 4A11 (Homo sapiens, UniProt Q02928); assay: Alexa-FABP1 and P450 4A11 association kinetics (stopped-flow fluorescence); format: binding
T2 construct: made in house; host or cells: E. coli
T2 sequence (Q02928 5-519): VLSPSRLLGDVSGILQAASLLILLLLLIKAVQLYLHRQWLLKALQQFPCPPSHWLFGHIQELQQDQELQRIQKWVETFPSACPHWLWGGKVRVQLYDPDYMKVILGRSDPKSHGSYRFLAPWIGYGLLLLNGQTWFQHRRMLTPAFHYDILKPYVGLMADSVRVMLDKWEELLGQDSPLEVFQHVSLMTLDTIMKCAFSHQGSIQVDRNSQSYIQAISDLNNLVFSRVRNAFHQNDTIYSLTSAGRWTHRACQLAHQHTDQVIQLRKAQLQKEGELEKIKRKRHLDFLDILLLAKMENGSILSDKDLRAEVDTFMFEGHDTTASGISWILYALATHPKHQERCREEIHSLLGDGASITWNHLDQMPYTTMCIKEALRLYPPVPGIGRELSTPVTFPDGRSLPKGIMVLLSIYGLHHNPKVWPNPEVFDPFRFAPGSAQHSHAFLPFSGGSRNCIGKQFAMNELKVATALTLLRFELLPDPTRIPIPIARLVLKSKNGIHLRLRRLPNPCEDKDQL
T2 sequence (P07148 with tags, fused parts or gaps partner): T1 sequence (P07148 with tags, fused parts or gaps)
Method: We then investigated whether the rate of protein–protein association could be estimated using our fluorescent construct. A solution of Alexa-FABP1 (125 nM final concentration) was rapidly mixed with P450 4A11 (125 Nm final concentration), and Alexa-488 fluorescence was monitored over time. The data were fit to a single exponential equation and yielded an association rate of 2.0 ± 0.2 s^−1 (Fig. 10B).
To estimate a rate of interaction for FABP1 and P450, we loaded the protein–protein binding data (Fig. 10B) and fit the data to a simple model, E+F↔EF , as described in the Experimental procedures section. The software fit a kon rate of 2.0 × 10^7 M^−1 s^−1, close to that estimated by using the extracted binding rate ∼2 s^−1 at the concentration (0.125 μM) of either reaction component (i.e., 2 s^−1/0.125 μM = 16 μM^−1 s^−1 = 1.6 × 10^7 M^−1 s^−1).
Mixing solutions (2 ml) of (A) Alexa-FABP1 (0.25 μM [estimated by A280 prior to conjugation reaction, accounting for dilution, and assuming no protein loss during the reaction as described earlier]) and (B) P450 4A11 (0.25 μM) were prepared in potassium phosphate buffer (100 mM, pH 7.4) and loaded into the stopped-flow spectrofluorometer described earlier. The instrument (1.24 mm slit width) was set with an excitation wavelength of 470 nm and Oriel end-on filter for emission >495 nm. The fluorescence maximum of Alexa-FABP1 is 510 nm as described earlier, and stimulation is observed upon protein–protein binding (see “Titrations of Alexa-FABP1 with P450 4A11”). At least six replicate measurements were recorded, the spectra were processed such that the fluorescence gain (from DAUDA binding) began at an (x, y) intercept of (0, 0), and the spectra were averaged. A smoothing factor of 0.4 was applied to the data (in Microsoft Excel), and the resulting curve was fit to a single exponential plot in GraphPad Prism, and the rate of association was extracted. The data were loaded into KinTek Explorer and fit to a minimal kinetic model of protein–protein association (i.e., E+F↔EF ), and a second-order rate constant for the association was extracted.

rate of protein–protein association ([2]; Alexa-FABP1 0.125 μM, P450 4A11 0.125 μM, single exponential) [s⁻¹] | kon of FABP1–P450 4A11 association (k6) ([2]; KinTek fit to E+F↔EF) | kon of FABP1–P450 4A11 association ([2]; binding rate ∼2 s^−1 divided by 0.125 μM) [M⁻¹ s⁻¹] | koff of FABP1–P450 4A11 (k-6) ([2]; calculated from kon and Kd) | Molecule | Kd [1] [nM]
 |  |  |  | CCCCCCCCCCCCCCCC(=O)O [Palmitate (C16), palmitate] | 38 ± 1
~2 | 2.0 × 10^7 (k6) M^−1 s^−1 | 1.6e+07 | 2.4 (k-6) s^−1 | FABP1: delipidated recombinant liver fatty acid binding protein with C-terminal hexahistidine tag | 
